From the supplement of paper PMC10567573
± gives the standard deviation.

Experiment: protein stability index of a GFP-peptide fusion (GPS, HEK-293T) (PSI 1-6); higher = more stable
Conditions: c terminus: a fixed tail appended
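Also: 24-mer peptide tiles fused after GFP, lentivirally expressed, FACS-sorted into six equal bins by GFP/DsRed ratio, decoded by Illumina sequencing, PSI is the read-weighted mean bin number.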

Sequence | protein stability index (treatment: DMSO) | protein stability index (treatment: MLN4924 1 uM, 8 h)
EEIVFNLTNNVDLDNTKKKMEIYQ [MNAT1] | 4.05 ± 0.39 | 4.02 ± 0.35
KAKPEPDILEEEKIYAYPSNITSE [TMEM192] | 4.82 ± 0.2 | 4.83 ± 0.2
AAIDNGLAFPLKHPDSWRAYPFYW [PI4K2A] | 2.27 ± 0.18 | 2.26 ± 0.2
ERALDATEVPFSITTDNLQCRERR [TEKT4] | 4.88 ± 0.069 | 5.06 ± 0.11
SLFARAMQVLVTAISPGRFPEALD [ANKRD9] | 3.04 ± 0.31 | 2.8 ± 0.54
FHPIKETVVEEPVDITPYLDQLDE [INTS3] | 3.98 ± 0.67 | 4.5 ± 0.44
EETIASLQMEVCRLKKEEEDRIVT [CEP70] | 4.65 ± 0.072 | 4.8 ± 0.32
FLDLFRYRVLLGHTLILMFIWFVC [SLC22A15] | 2.73 ± 0.42 | 2.85 ± 0.71
VPQAPRRLRASFSRKPSLKGNRED [PLEKHN1] | 4.71 ± 0.097 | 4.83 ± 0.13
DKPLPPPPPGSLSRTQEPSLGKQK [SOAT2] | 5.27 ± 0.28 | 5.41 ± 0.21
GGDLMPAPADPTAREGLAAPPRRL [FCHO1] | 5.19 ± 0.33 | 5.15 ± 0.23
VLAIIAREGDCAPEEKIWEELSVL [MAGEA3] | 2.62 ± 0.48 | 2.42 ± 0.4
TRNSPRGCRLPSISSTTCGRQLEK [SPATS1] | 3.81 ± 0.26 | 4 ± 0.18
RWSPAQEESFRQMVVIHKEIPTGK [ZNF232] | 3.87 ± 0.42 | 3.99 ± 0.17
PNCLSMGSRCLKTFEVPEENTAET [ZBED1] | 4.89 ± 0.39 | 4.93 ± 0.15
FHGKYSTINPLWHIRHLGWNPDAR [GLT8D2] | 2.57 ± 0.39 | 2.31 ± 0.21
QKVVVTTPLHRDKTPLHQKHAAFV [MYBL2] | 3 ± 0.2 | 3.14 ± 0.32
PPQPCATACKPVIRVPSVPPVPCV [KRT36] | 2.9 ± 0.28 | 2.91 ± 0.16
WAFSCGTWLPSRAEWLLAVRSIQP [AASDHPPT] | 2.65 ± 0.65 | 2.6 ± 0.64
LQSGQEYVFFVLAVMEHAESKMYA [PTPRD] | 2.4 ± 0.63 | 2.51 ± 0.75
SIKMGKRNGLHLPEQVQNEIKSMK [NLN] | 4.02 ± 0.17 | 3.87 ± 0.55
DLDLIQSTPFKPLALKTPPRVLTL [MFF] | 2.31 ± 0.3 | 2.36 ± 0.34

Sequence | protein stability index (treatment: DMSO) | protein stability index (treatment: MLN4924 1 uM, 8 h)
LWNGDKYAATTTPFTPLHIKVKPK [TRIM39] | 2.99 ± 0.27 | 3.28 ± 0.38
EQASAFQEQEIDGKSLLLMTRNDV [SAMD13] | 4.74 ± 0.12 | 4.78 ± 0.14
MAQQQMTSSQKALMLELKSLQEEP [UBE2R2] | 4.33 ± 0.28 | 4.29 ± 0.24
HSTLEYKVKERLGTLKNPPKKKMK [LCOR] | 4.47 ± 0.26 | 4.73 ± 0.28
YAVENEHMNRLQSQRAMLLQGTES [VTI1B] | 3.94 ± 0.31 | 4.1 ± 0.2
AYSGNTSNLSYHLEKNHPEEFCEF [ZBED1] | 3.63 ± 0.38 | 3.55 ± 0.48
YSAEQFCVSRNSHLTSVTSESEQE [CD207] | 5.23 ± 0.21 | 5.13 ± 0.32
WLPYLYTLQGLYLVYHPVQLSTPH [DHCR7] | 3 ± 0.25 | 2.91 ± 0.34
PYREDEEGAFGEHGSQGTYSNTKE [MAP2] | 5.66 ± 0.22 | 5.72 ± 0.2
EYDDDDSAASTSFQPQPVQPQQGY [ZNF207] | 5.32 ± 0.21 | 5.37 ± 0.26
DGLLGDNQIMPKTGFLIIILAIIA [MAGEA6] | 2.86 ± 0.65 | 2.12 ± 0.46
QVGAKGDTANEIGQVLHFENVKDV [SERPINB5] | 4.94 ± 0.37 | 5.19 ± 0.24
SALEDQGSNPSSSNSSQDSLHKGA [PPFIA4] | 5.48 ± 0.14 | 5.49 ± 0.23
FQLNQDKMNFSTLRNIQGLFAPLK [POMP] | 2.54 ± 0.61 | 2.3 ± 0.4
VSYRGAWWYRNCHYANLNGLYGST [TNXB] | 2.49 ± 0.46 | 2.26 ± 0.86
RDTFYKEQLERIERKNAEMYKLSS [CHCHD6] | 3.5 ± 0.12 | 3.79 ± 0.43
LASGRIILILEGGYNLTSISESMA [HDAC6] | 2.63 ± 0.14 | 2.82 ± 0.79
SYRSFHSGGYGQDALGMDPMMEHE [CTNNB1] | 4.29 ± 0.2 | 4.21 ± 0.25
DIYILPSDNSGQVSPPESPTVTTS [BCL2L13] | 4.58 ± 0.27 | 4.5 ± 0.15
VSSVFLLTLSIAFICCAQVKVSHL [PHTF1] | 3.57 ± 0.43 | 3.02 ± 0.58
SAVVQLYAADRNCMWSKKCSGVAC [WASL] | 2.36 ± 0.23 | 2.41 ± 0.42
TVAIGAESEVYSWGKGARGRLGRR [NEK8] | 4.08 ± 0.16 | 4.14 ± 0.15
